Key:
[1] = target: CADM1 on small cell lung cancer cell lines H146 and H69 (human) (UniProt Q9BY67); experiment: flow cytometry, 1 ug scFv on 5x10^5 H69 cells, PE anti-HA
[2] = target: T1, CADM1 peptide structure expressed on cells (CADM1 peptide, Myc tag, hinge, transmembrane domain, GFP) (human); experiment: flow cytometry, 1 ug scFv on 5x10^5 cells with the CADM1 peptide structure, PE anti-HA
T1 sequence: DSRAGEEGSIRAVDH

[3] = target: CADM1 on small cell lung cancer cell lines H146 and H69 (human) (UniProt Q9BY67); experiment: flow cytometry, 1 ug scFv on 5x10^5 H146 cells, PE anti-HA

B1: 4A2 (scFv, V domains shown)
VH: AVTLDESGGGLQTPGRALSLACKGSGFTFSSYAMNWVRQAPGKGLEFVAQITSSGRYTYYGTAVKGRATISRDNGQSTVRLQLNNLRAEDSGTYYCAKDAAAGYYDGATAGDIDAWGHGTEVIVSS
VL: LTQPSSVSANPGETVKITCSGGYNRYGWYQQKSPGSAPVTVIYSNNQRPSNIPSRFSGSKSGSTATLTITGVQAEDEAVYYCGSYDSSDGYAGIFGAGTTLTVL
A 결합력 % [1] of 29.1%, a 결합력 % [2] of 16.3% and a 결합력 % [3] of 10.2% were found for B1 in this work.

B2: RB11 (scFv, V domains shown)
VH: AVTLDESGGGLQTPGGGLSLVCKGSGFTFSSYAMNWVRQAPGKGLEFVAQITSSGRYTYYGTAVKGRATISRDNGQSTVRLQLNNLRAEDSGTYYCAKDAAAGYYDGATAGDIDAWGHGTEVIVSS
VL: LTQPSSVSANPGGTVKITCSGGSGSYGWFQQKAPGSAPVTLIYANTNRPSDIPSRFSGSKSGSTATLTITGVQVEDEAVYYCGSTDSSYVSIFGAGTTLTVL
A 결합력 % [1] of 61.8%, a 결합력 % [2] of 16% and a 결합력 % [3] of 33.6% were found for B2 in this work.

B3: 4A8 (scFv, V domains shown)
VH: AVTLDESGGGLQTPGGGLSLVCKASGFTFSSYAMNWVRQAPGKGLEFVAQITSSGRYTYYGTAVKGRATISRDNGQSTVRLQLNNLRAEDSGTYYCAKDAAAGYYDGATAGDIDAWGHGTEVIVSS
VL: LTQPSSVSANLGGTVKITCSGGSGSNHYGWYQQKSPGSAPVTVIYSNNKRPSNIPSRFSGSKFGSTATLTITGVQADDEAVYYCGGYDSSAGYIGPFGAGTTLTVL
A 결합력 % [1] of 61.1%, a 결합력 % [2] of 14.7% and a 결합력 % [3] of 9.7% were found for B3 in this work.

B4: RH6 (scFv, V domains shown)
VH: AVTLDESGGGLQTPGGGLSLVCKGSGFTFSSYAMNWVRQAPGKGLEFVAQITSSGRYTYYGTAVKGRATISRDNGQSTVRLQLNNLRAEDSGTYYCAKDAAAGYYDGATAGDIDAWGHGTEVIVSS
VL: VTQPSSVSANPGESVKITCSGGSYSYGWYQQKSPGSAPVTVIYSNNQRPSNIPSRFSGSTSGSTSTLTITGVQADDEAVYFCGTFDSSTNAAFGAGTTLTVL
A 결합력 % [1] of 12%, a 결합력 % [2] of 15.3% and a 결합력 % [3] of 4.5% were found for B4 in this work.
